Source: patent US20030036184A1 (priority 2000, published 2003)

B1: PDE7A;101-430: truncated human PDE7A1, amino acids 101-430 (protein, UniProt Q13946 101-430, looked up, fragment)
chain: VSVSARNIRRLLSFQRYLRSSRFFRGTAVSNSLNILDDDYNGQAKCMLEKVGNWNFDIFLFDRLTNGNSLVSLTFHLFSLHGLIEYFHLDMMKLRRFLVMIQEDYHSQNPYHNAVHAADVTQAMHCYLKEPKLANSVTPWDILLSLIAAATHDLDHPGVNQPFLIKTNHYLATLYKNTSVLENHHWRSAVGLLRESGLFSHLPLESRQQMETQIGALILATDISRQNEYLSLFRSHLDRGDLCLEDTRHRHLVLQMALKCADICNPCRTWELSKQWSEKVTEEFFHQGDIEKKYHLGVSPLCDRHTESIANIQIGFMTYLVEPLFTEWAR
modifications: PDE7A1
B2: PDE7Δ100: human PDE7A1 construct which lacks the first 100 amino acids; positions 45-427 of SEQ ID No1 (protein)
chain: VSVSARNIRRLLSFQRYLRSSRFFRGTAVSNSLNILDDDYNGQAKCMLEKVGNWNFDIFLFDRLTNGNSLVSLTFHLFSLHGLIEYFHLDMMKLRRFLVMIQEDYHSQNPYHNAVHAADVTQAMHCYLKEPKLANSVTPWDILLSLIAAATHDLDHPGVNQPFLIKTNHYLATLYKNTSVLENHHWRSAVGLLRESGLFSHLPLESRQQMETQIGALILATDISRQNEYLSLFRSHLDRGDLCLEDTRHRHLVLQMALKCADICNPCRTWELSKQWSEKVTEEFFHQGDIEKKYHLGVSPLCDRHTESIANIQIGFMTYLVEPLFTEWARFSNTRLSQTMLGHVGLNKASWKGLQREQSSSEDTDAAFELNSQLLPQENRLS
modifications: left off: small tags and cut ends
B3: PDE7A;101-450: truncated human PDE7A1, amino acids 101-450; positions 45-394 of SEQ ID No1 (protein, listed as Homo sapiens)
chain: VSVSARNIRRLLSFQRYLRSSRFFRGTAVSNSLNILDDDYNGQAKCMLEKVGNWNFDIFLFDRLTNGNSLVSLTFHLFSLHGLIEYFHLDMMKLRRFLVMIQEDYHSQNPYHNAVHAADVTQAMHCYLKEPKLANSVTPWDILLSLIAAATHDLDHPGVNQPFLIKTNHYLATLYKNTSVLENHHWRSAVGLLRESGLFSHLPLESRQQMETQIGALILATDISRQNEYLSLFRSHLDRGDLCLEDTRHRHLVLQMALKCADICNPCRTWELSKQWSEKVTEEFFHQGDIEKKYHLGVSPLCDRHTESIANIQIGFMTYLVEPLFTEWARFSNTRLSQTMLGHVGLNKAS
B4: PDE7A;101-420: truncated human PDE7A1, amino acids 101-420 (protein, UniProt Q13946 101-420, looked up, fragment)
chain: VSVSARNIRRLLSFQRYLRSSRFFRGTAVSNSLNILDDDYNGQAKCMLEKVGNWNFDIFLFDRLTNGNSLVSLTFHLFSLHGLIEYFHLDMMKLRRFLVMIQEDYHSQNPYHNAVHAADVTQAMHCYLKEPKLANSVTPWDILLSLIAAATHDLDHPGVNQPFLIKTNHYLATLYKNTSVLENHHWRSAVGLLRESGLFSHLPLESRQQMETQIGALILATDISRQNEYLSLFRSHLDRGDLCLEDTRHRHLVLQMALKCADICNPCRTWELSKQWSEKVTEEFFHQGDIEKKYHLGVSPLCDRHTESIANIQIGFMTYL
modifications: PDE7A1
B5: fragment 1-101: first N-terminal 100 amino acids of the full length human PDE7A1 (protein, UniProt Q13946 1-100, looked up, fragment)
chain: MEVCYQLPVLPLDRPVPQHVLSRRGAISFSSSSALFGCPNPRQLSQRRGAISYDSSDQTALYIRMLGDVRVRSRAGFESERRGSHPYIDFRIFHSQSEIE
modifications: PDE7A1
notes: first N-terminal 100 amino acids of the full length human PDE7A1

Tests used:
[1] = target: PDE7 mutant corresponding to the amino acids sequence 101-483 of the full length human PDE7A1 (human) (UniProt Q13946); test: cell-based or functional assay
[2] = target: T1, PDE7(101-450) (Homo sapiens, UniProt Q13946); test: PDE assay for IC50 measurements (SPA, cell lysate enzyme); format: biochemical; settings: PDE7(101-450) produced in Baculovirus or eucaryote
T1 construct: made in house; host or cells: CHO (EcRCHO) cells, transient transfection; crude lysate supernatant
Experimental: (§1) The cell lysates containing PDE7A1 (full length or the truncated forms) were used as enzyme source. PDE assays were performed in 96-well plates in a final volume of […] at pH 8 comprising: 2 μL of compound dissolved in DMSO at 8 different concentrations, 40 mM TRIS, 10 mM MgCl2, 50 nM [^3H]-cAMP (Amersham) and enzyme at the appropriate concentration. Plates were incubated for 10 min at 37° C. in a heater/shaker and stopped by addition of 20 μL Yttrium silicate beads (Scintillation Proximity Assay, Amersham). Enzyme activity was read on a Topcount reader (Packard). Substrate depletion never exceeded 15% of the initial amount. The given IC50s represent the concentration of compound leading to 50% inhibition of the cAMP hydrolysis versus control. They are calculated using a classical sigmoidal model with Hill slope fixed to 1.
(§2) The cell lysates containing recombinant PDE7A1 (full length or the truncated forms) were used as enzyme source. PDE assays were performed in 96-well plates in a final volume of 100 μL at pH 8 comprising: […] of compound dissolved in DMSO at 8 different concentrations, 40 mM TRIS, 10 mM MgCl2, 50 nM [^3H]-cAMP and enzyme at the appropriate concentration.
(§3) Plates were incubated for 10 min at 37° C. in a heater/shaker and stopped by addition of 20 μL Yttrium silicate beads (Scintillation Proximity Assay, Amersham).
(§4) Enzyme activity was determined by measuring the radioactivity on a Topcount reader (Packard).
(§5) Substrate depletion never exceeded 15% of the initial amount. The given IC50s represent the concentration of compound leading to 50% inhibition of the cAMP hydrolysis versus control. They are calculated using a classical sigmoidal model with Hill slope

[3] = target: T2, recombinant full length PDE7A1 (Homo sapiens, UniProt Q13946); test: as above; format: biochemical; settings: full length PDE7A produced in Baculovirus or eucaryote
T2 construct: the full length PDE7A1 protein (1-483); made in house; host or cells: CHO (EcRCHO) cells, transient transfection, cytosol/lysate supernatant; Sf21/baculovirus also described
Experimental: as §1, §2, §3, §4, §5

[4] = target: PDE7A (Homo sapiens, UniProt Q13946); settings: cited from earlier work
[5] = target: T3, PDE7(101-483) (Homo sapiens, UniProt Q13946); test: cAMP hydrolysis in cytosol extract of transfected CHO cells, with rolipram; format: biochemical; settings: truncated PDE7 construct 101-483 in CHO; rolipram at 10 μM
T3 construct: this catalytic fragment (101-482) fragment was co-expressed; made in house; host or cells: CHO (EcRCHO) cells, transient transfection; crude lysate supernatant
Experimental: Three days before transfection, CHO cells were plated at a density of 2×10^6 cells per 150 cm^2 flask. Cells were transfected with 20 μg of endotoxin free plasmid DNA using Lipofectamine following the manufacturers instructions (Gibco BRL, Gaithersburg, Md.). After incubation for 48 hours, cells were washed twice with phosphate buffered saline (PBS), trypsinized, harvested by centrifugation and resuspended in 300 μL of PDE extraction buffer (Bis Tris 20 mM (pH 6.5), EDTA 10 mM, DTT 2.5 M) supplemented with a mixture of protease inhibitors at a final concentration of 2 mM benzamidine, 2 μg/ml soybean trypsin inhibitor, 50 μM PMSF and 100 μg/ml bacitracin. Cells were sonicated, centrifuged for 20 minutes at 14,000 g and the resultant supernatants were analyzed for cAMP phosphodiesterase activity.
Phosphodiesterase activities were assayed using a modification of the method described by Smith and collaborators (Manganellio et al., 1991) using the observation that 5′-nucleotides bind very strongly to aluma while the cyclic nucleotides are readily eluted at neutral or slightly alkaline pH. Assays were performed in 96 well plates at 37° C. in a total volume of 200 μl. […] The separated [^3H] cAMP was back-corrected for recovery using the separated and non-separated [^14C] values and expressed as a fraction of the total [^3H] cAMP to give the amount of the substrate hydrolyzed. […]

[6] = target: T4, recombinant PDE7A1 (Homo sapiens, UniProt Q13946); test: cAMP hydrolysis in cytosol extract of transfected CHO cells, with or without rolipram; format: biochemical; settings: rolipram 10 μM
T4 construct: the full length PDE7A1 protein (1-483); made in house; host or cells: CHO (EcRCHO) cells, transient transfection, cytosol/lysate supernatant; Sf21/baculovirus also described
Text: (§6) The reaction mixtures were then applied to these columns.

[7] = PDE catalytic activity of full length and truncated PDE7A1 expressed in CHO cells; format: biochemical; settings: for level of PDE activity after expression in CHO cells (in words): cell cytosol, compared with full length PDE7A1 or PDE7Δ100; for increase in PDE catalytic activity compared to full length PDE7A1/PDE7A2 / phosphodiesterase catalytic activity relative to full length enzyme: expressed in CHO cells
Experimental: as §6
The resultant PDE activity was measured and compared to that for the full length coding region of PDE7A1 and non-transfected cells. […] The first 100 amino acids seem to have an influence on the catalytic activity of the expressed PDE7 enzyme.

[8] = PDE assay for Km measurements; format: biochemical; settings: Km for cAMP
Experimental: The cell lysates containing PDE7A1 (full length or the truncated forms) were used as enzyme source. […] Substrate concentrations spanned a 15 nM-750 nM range. Plates were incubated for 10 min at 37° C. in a heater/shaker and stopped by addition of 20 μL Yttrium silicate beads (Scintillation Proximity Assay, Amersham). Enzyme activity was read on a Topcount reader (Packard). Substrate depletion never exceeded 15% of the initial amount. Saturation curves were then fitted with a classical sigmoidal model, Hill slope fixed to 1.
By performing kinetics studies and Km measurements as described above, the respective Km values of the full length PDE7A1 and the truncated 101-450 PDE7A1 recombinant proteins expressed in CHO cells have been determined and are shown in Table 1 below.
The Km for cAMP of the PDE7(101-450), PDE7(101-483), have been measured and compared to those of endogenously expressed PDE7 in human lymphocyte cell line (Molt4) and the full length wild type recombinant PDE7A1 (Table 1).

[9] = target: T5, catalytic fragment (101-482) (Homo sapiens, UniProt Q13946); test: Co-expression of the first 100 N-terminal amino acids with the catalytic fragment in CHO cells, PDE activity; format: cell-based
T5 construct: this catalytic fragment (101-482) fragment was co-expressed; 6xHis (N); expressed in transfected cells; host or cells: CHO cells co-transfected (lipofectamine) with two plasmids; PDE activity measured
Experimental: This part of the protein has been proposed to act as an auto-inhibitory domain. To establish if overexpression of the first 100 amino acids can inhibit PDE7 activity of the catalytic site, this catalytic fragment (101-482) fragment was co-expressed with the fragment 1-101 of a separate plasmid or with the plasmid pcDNA3 without this insert (negative control). Cells were transfected with 15 μg of each plasmid DNA. The catalytic site activity was inhibited of only around 40-50% in presence of fragment 1-101. (FIG. 12) The effect dose response has been checked to evaluate the involvement of the first 100 amino in PDE7 activity of the catalytic domain.
A dose effect curve has been done in the same coexpression conditions. 15 μg of the catalytic fragment (101-482) was coexpressed with increasing quantity of the fragment 1-101 of a separate plasmid. The DNA quantity was normalized for each transfection using an empty vector. (FIG. 13) A effect dose response of 100 N-terminal amino acids on PDE7 activity was observed (n=3). The catalytic domain activity was inhibited until 60% in presence of the fragment 1-100 at the highest concentration.

Chain of PDE7A (Q13946 whole entry, species assumed, the tested form may be a part): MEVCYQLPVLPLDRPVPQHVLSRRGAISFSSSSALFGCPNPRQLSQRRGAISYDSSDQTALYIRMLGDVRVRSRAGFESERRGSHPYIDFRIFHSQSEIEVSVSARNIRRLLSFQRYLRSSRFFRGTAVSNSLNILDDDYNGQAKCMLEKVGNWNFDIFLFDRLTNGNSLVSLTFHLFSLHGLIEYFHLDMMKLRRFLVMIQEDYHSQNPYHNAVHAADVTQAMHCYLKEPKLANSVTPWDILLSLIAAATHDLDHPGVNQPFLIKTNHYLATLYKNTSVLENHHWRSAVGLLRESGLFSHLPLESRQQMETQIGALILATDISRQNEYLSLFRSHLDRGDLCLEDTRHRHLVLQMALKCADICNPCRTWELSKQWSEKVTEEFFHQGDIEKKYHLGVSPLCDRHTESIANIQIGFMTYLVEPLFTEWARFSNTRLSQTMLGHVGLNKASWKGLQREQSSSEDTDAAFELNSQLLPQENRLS
T2 sequence (Q13946 whole entry): as the sequence (Q13946 whole entry, species assumed, the tested form may be a part) above
T4 sequence (Q13946 whole entry): as the sequence (Q13946 whole entry, species assumed, the tested form may be a part) above

Molecule	sensitivity of enzyme to inhibitor [2]	sensitivity of enzyme to inhibitor [3]	sensitivity of PDE7A to standard selective inhibitors of other PDE families [4]	level of PDE activity after expression in CHO cells (in words) [7]	other results
first N-terminal 100 amino acids of the full length human PDE7A1 (from UniProt Q13946 1-100)	–	–	–	–	PDE7 catalytic domain activity in CHO cells, 15 µg catalytic fragment plasmid with increasing quantity of fragment 1-101 plasmid, percent inhibition at the highest concentration [1]: 60%; PDE7 catalytic site activity in lysates of co-transfected CHO cells (15 µg of each plasmid), percent inhibition [1]: 40 to 50%
CN/C(=N\c1ccc(C2=NNC(=O)CC2C)cc1)NC#N (stereo not drawn) [SKF-94836]	insensitive	insensitive	insensitivity	–	–
CCOC(=O)C1=C[C@]2(CC)CCCN3CCc4c(n1c1ccccc41)[C@@H]32 [Vinpocetin]	insensitive	insensitive	insensitivity	–	–
COc1ccc(C2CNC(=O)C2)cc1OC1CCCC1 (stereo not drawn) [rolipram]	insensitive	insensitive	–	–	sensitivity of PDE activity to rolipram [5]: insensitive; sensitivity of increase in cAMP activity above basal to rolipram [6]: insensitive
CCCOc1ccccc1-c1nc2nn[nH]c2c(=O)[nH]1 [Zaprinast]	insensitive	insensitive	insensitivity	–	–
Cc1[nH]c(=O)c(C#N)cc1-c1ccncc1 [milrinone]	–	–	insensitivity	–	–
B1	–	–	–	no detectable increase	–
B2	–	–	–	Highest levels of PDE activity	Km ([8]; Table 1): 0.052 µM; increase in PDE catalytic activity compared to mock transfected cells ([7]; CHO cells): 8 fold; increase in PDE catalytic activity compared to full length PDE7A1/PDE7A2 [7]: 15 fold; phosphodiesterase catalytic activity relative to full length enzyme [7]: about 15 times
B3	–	–	–	equivalent to that observed for PDE7Δ100	Km [8]: 0.07 µM; Km ([8]; Table 1): 0.074 µM; increase in PDE catalytic activity compared to full length PDE7A1/PDE7A2 [7]: about 15 fold; phosphodiesterase catalytic activity relative to full length enzyme [7]: about 15 times
B4	–	–	–	no detectable increase	–
B5	–	–	–	–	inhibition of catalytic site activity ([9]; co-expression, 15 μg of each plasmid DNA): 40-50%; inhibition of catalytic domain activity ([9]; dose effect curve, fragment at the highest concentration, n=3): ≤ 60%
